Source: a protein production outcome set (Wang et al. 2014)

assay: label from the status in PepcDB records

Sequence	protein production
MAFRKPDEIAEAAIEAGMKKIKLPLPSLLVLGFLGGAFIALGYLLDIRVIGDLPKEWGSLSSLIGAAVFPVGLILVVLAGAELITGNMMSVAMALFSRKISVKELAINWGIVTIMNLIGALFVAYFFGHLVGLTETGPYLEKTIAVAQGKLDMSFGKVLISAIGCNWLVCLAVWLSFGAQDAAGKILGIWFPIMAFVAIGFQHVVANMFVIPAAIFAGSFTWGQFIGNIIPAFIGNVIGGAVFVGLIYFIAYHKKDRSRKEMKQVS	failed
MAFSVAYDLIPNKLIKDIDEMNQWLHDKINRAVYLVGFATQQSDYEYKLYELFKALDELEERLKKQLFLFGNQLTESDLYLLATLERFDNIYFCLFKCSLKRIADYPALFRYHNQLRGMESLASTYQPVLTKEHYFMSTMHVLGLEHHHHHH	failed
MAGEKAQKKGKEKWKEKTWYTVESPPYLGSKEVTVALGEDPESMVNRIVEVPISDLTGNFKKSNEKALFRITGCEGTKCKTIFIGHYIGDDYIRRLVRRRKERIDIIEDVKTSDGSIITVKIVVVSDGKLTNTKKSEIRKALTSFIVSKGSQLSYADFVRYLIGDDSYNDMVEATKNIYPLRKIEIRKSELVSLSGMQEPQKNEPAPGGEAIAQNLEHHHHHH	not failed
MAGESGAPIRCRLLPIDMDAALGPPEQMAELEEDLTPMMAQYYELCRQYDDALVLFQVGDFYEAFCAAAKRVARLCEITLTQREDSTGEYPMAGIPIDNAESYVETLLDAGYRVAIADQVEDPDEVSGVVERAVTRIVTPGTLTESELLGGADNNYVAALTAGERYGLALLDISTGDCYATSVGSESAVADELSRFGPAEAIVGPDVDVDRDAVFGPACLVTRYDADAFAQDRAEDRVGQYFGPPERLLAGGAEIRACGGLLAYAEYTRGSSGAVGPDGEPVDPDVDPAGTLDYLNHLTRYDPREYMLLDAVAVESLELFKRRSVRGHENRTLVDTVDETACALGRRKLTDWLRRPLLDADRIEARHGAVAELQRDPATREELSALLAEVYDLERLISRVSRGRANARDLRSLAATLSVVPDIRDHLADADARLLADLHATLDPLAETREEIEAAIRPDPPQQVTEGGVIREGYDEELDRLRSTEQSGKEWIDELEASERERTGIDSLKVGHTSVHGYYIEVTNANLDAVPEDYQRRQTLKNSERYYTPALKEREDEILRAESAADDLEYDLFCAVRDEVADEAERVQALADRLARLDVLVSFAEVAAQYDYCRPTVGSDGIDVTAGRHPVVERTEDAFIPNDTHLGSGPVPASRDGSDDGVTADDIQPFLAVVTGPNMSGKSTYMRQVALICLLAQSGSFVPAKAADLPILDRVFTRVGASDDIAGGRSTFMIEMTELATILDAATENSLVLLDEVGRGTSTADGLAIARAVTEYLHDEVGAYTLFATHHHDLTAVAAALSGATNRHFETSREDGDVRFDHELAPGPAAASYGVEVASMAGVPDSVVERSRDLLADAETADTGVEATRETEVASEPRPGTRADSETDSTATETTGPTENGAASAPAGEATSDDHAQEVFQTNGAAAEDELPESVAQQLASLDVATMTPIEAMNALADLQDRIE	failed
MAGGGNRRDEGSITIQSTNLFAALDTRKKKKKSDKAGKSKGSSKSREPEKEPEPQVYWAPTPLKVKSWADIDDEDDDDDYYATTAPPQSGWSTSLPSHTDSKDVHVEESESEEDILDEGDDDVEEEQEQETEVQVHPEPEVKKAPEVPAPPKEAERQLSKKERKKKELAELEALLADFGVAPKENNGLEESQEAGQEKKEDVNGEGEKKENAAGGESKASKKKKKKDKQKEVKESQEQQANNNADAVDEAAGSEPTEEESPIDVKERIKKLASMKKKKSGKEVDAAAKAAAEEAAARRKKLAAAKKKEKNHYNQQPVR	failed
MAGHTDNEITIAAPMELVWNMTNDIEKWPGLFSEYASVEVLGRDDDKVTFRLTMHPDADGKVWSWVSERVADPVTRTVRAQRVETGPFQYMNIVWEYAETAEGTVMRWTQDFAMKPDAPVDDAWMTDNINRNSRTQMALIRDRIEQAAGERRTASVLADLEHHHHHH	not failed
MAGKLDPYRRKRHFGATPEPEGAHGHHAKAGAKPAARASARGTHPLRFVIQEHHARRLHYDFRLELDGTLKSWAVPKGPSFDPSVKRLAVHVEDHPLEYASFEGQIPEGHYGAGSVVVWDEGTWTPDGGVAQAREGYRAGKLTFRLDGEKLHGGWALVRSGRQEGRQEQWLLIKERDDDARSMDEFDVVGERPGSVHDGAASARADAKNGSARGSRSGQREKSGTSAARHDDHRHDGHAGTPIDPSRIEGAVRAPLPEHVAPQLATLVDGPPTQGDWCYELKFDGYRILARISGKGARRHVKLMTREGRDWTAKLRAQRDALAALDVDAAWLDGEAVVLGKNGLPDFQALQNAFGGGHSDEITLFVFDLPYLDGYDLRDAPLTARRALLEPLFADSDPTRLRFSPDLGNDVASLIASACDTGLEGLIGKRAESRYRAGRSPAWIKLKCRRRQEFVIGGYTEPSGSRHGFGALLLGVHEPAADGKRRRGPGPLRYVGRVGTGFDTRMLDRLTPILRKHERDTMPFDPPPRERSRTPVHWIEPVLVAECEFAEWTGDGIVRQAAFIALREDKPAARIVREVPKHTETEVQMEQRQTTRHERHKPKGAARAERDTSDASDGKHPARSRGSRRAEADDTGPDQLGRVRISHPERVIDSHSGTRKIDLARYWQWVAPWLLRDLKGRPVSLVRAPGDISGELFFQKHAERREIPFVTQHEGLDPGHGPLLSLDSVDALLGAAQMGTIELHTWNAHASNIERPDRIVFDLDPDPALPWSAMIDAAQLVRGLLDELGLISFCKTSGGKGLHVVVPITRHMGWDEVKDFSRAVAQHVAGALPDRFTATMGPKHRRGKIFIDYLRNGRGASTIAAYSVRARPGLGVSVPLRWDEVPDTTGGAQWTIDTLHERLDRLKRDPWDGYDDTRQRITAQMRARLGTS	failed
MAGKRKKPKDTDLPPRVYRGKSKYEFHPARGGSISLCPLDAPISQVWSDYEKVNDRLPEKVTLNKLTEQFLHSMDFCELAIETQKDYRKYSLKLLPVFGEMSPDNIRPEHIRKYMDKRGITSRTQANREKTFLSRVYRWGYERGMVKGNPCRGVKQFTEKARDRYITDEEYDAVYQVAPDVVRVAMEIAYLCLARQADVLALRRDQLREPGIYIKQGKTAARQIKAWSERLRDAITLAESLPLKSGISSVYIIHQRTGLRYTRDGFNSKWRKAREVAKKTYPELDFNFTFHDLKAKGVSDLEGTLSEKQAISGHKNMGQTARYDRKIKIVPVVGNQKK	failed
MAGLPGSVALIIVATAVIWKGSAYFERAAERLSKYYGLPVAVHGAIVVAVGSSFPEISSVVISTVIHDEFSLGVGAIVGSAIFNLLVIPALAALSSEELRSTRDIVHKDAQFYIISVLILFIVFALGATYVPGGTNRAAILTPTLVAVPLMAYGIYVFLHQQDASEHVADETHSVRPGREWGMLGVGLVIITVGVEGMVQGALSLGVIFDTPTFLWGLTVIAAGTSLPDAFVSVRAAKDDDSVTSLTNVLGSNTFNLLVAIPVGVLLAGRATIDFLVAIPTMGFLGAATLVFIVFIRTDLELTDREAYTLLGLYVVFVCWMALESVGLIETVSGI	failed
MAGNFDSEERSSWYWGRLSRQEAVALLQGQRHGVFLVRDSSTSPGDYVLSVSENSRVSHYIINSSGPRPPVPPSPAQPPPGVSPSRLRIGDQEFDSLPALLEFYKIHYLDTTTLIEPVSRSRQGSGVILRQEEAEYVRALFDFNGNDEEDLPFKKGDILRIRDKPEEQWWNAEDSEGKRGMIPVPYVEKYRPASASVSALIGGNQEGSHPQPLGGPEPGPYAQPSVNTPLPNLQNGPIYARVIQKRVPNAYDKTALALEVGELVKVTKINVSGQWEGECNGKRGHFPFTHVRLLDQQNPDEDFS	failed
MAGRRRRPTTDRTIGGLSFSQRELRDLLVAWLALGLAFTFFLEREFRRIVFGQFGGLSGAEIASTFAVSLLTVGVGFLLHELAHKVVAVRFGQIAAFKADYRMLGFAVLGGLVGFLFAAPGAVVHRGRLTAKQHGLIAVAGPVTNLALAVVFLVPFFLTASMGIGGFLRELTEMGLQINLLLAGFNMLPFGPLDGRTVREWSTPVFLAVAVPSILLGVGALFVL	failed
MAGSVGEETEPEWIKRVKLEGAVPCLKPDDNCKNGWTTPSPDTFMVRGPKYFSDKVKIPAGDFLLKPLGFDWIKGPKKLSEILSYPSSRIRKVIDEEFQKDGTKPFVWAFNLQLPHKDNYSAVAYFVTTEPILEGSLMDRFLKGDDGFKKSRLKLIANIVKGPWIVRKAVGEQAICVIGRALSCKYVSGENFVEIDVDIGSSMVASAIVHLAFGYVTTLTVDLAFLIESQTEAELPEKLLGAVRFSELQTESATSIELSSSTSNDQWDQTTSERSSWWKSIGNGFSNLLNQDTANMNNTSHGDIQKDEHVQKQ	failed
